# Positions count from the first letter of the chain named.
# T1: mouse 129 SIRP-α D1 domain (mouse (129 strain), UniProt P97797 32-150)
# T1 construct: also called m129
# T1 chain: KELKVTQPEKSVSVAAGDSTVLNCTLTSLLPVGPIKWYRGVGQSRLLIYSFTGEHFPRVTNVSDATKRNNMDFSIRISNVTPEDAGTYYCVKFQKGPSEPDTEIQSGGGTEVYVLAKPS
# T2: C57BL/6 mouse SIRP-α D1 domain (mouse (C57BL/6 strain), UniProt P97797 32-148)
# T2 sequence: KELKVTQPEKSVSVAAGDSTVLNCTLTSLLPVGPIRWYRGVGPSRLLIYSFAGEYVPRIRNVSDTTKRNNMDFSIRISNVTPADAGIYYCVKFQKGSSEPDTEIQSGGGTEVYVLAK
# T3: cynomolgus SIRP-α D1 domain (cyno2) (cynomolgus monkey, UniProt Q5TFQ8 30-148 (human entry), limits assumed)
# T3 chain: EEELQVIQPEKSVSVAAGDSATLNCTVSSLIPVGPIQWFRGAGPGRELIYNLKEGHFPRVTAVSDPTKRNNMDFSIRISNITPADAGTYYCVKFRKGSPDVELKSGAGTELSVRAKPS
# T4: high affinity SIRP-α D1 variant CV1-3
# T4 chain: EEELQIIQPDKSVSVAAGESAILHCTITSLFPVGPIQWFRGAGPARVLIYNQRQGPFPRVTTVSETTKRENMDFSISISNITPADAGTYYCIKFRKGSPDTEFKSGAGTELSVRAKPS
# T5: mouse 129 SIRP-α (mouse (129 strain), UniProt P97797 32-150)
# T5 construct: also called m129
# T5 chain: T1 chain
# T6: cynomolgus SIRP-α (cynomolgus monkey, UniProt Q5TFQ8 30-148 (human entry), limits assumed)
# T6 construct: also called cyno1
# T6 chain: T3 chain with D19E, V27A, S28T, A42V, N51H, L52Q, A62P
# T7: NOD mouse SIRP-α (mouse (NOD strain))
# T7 chain: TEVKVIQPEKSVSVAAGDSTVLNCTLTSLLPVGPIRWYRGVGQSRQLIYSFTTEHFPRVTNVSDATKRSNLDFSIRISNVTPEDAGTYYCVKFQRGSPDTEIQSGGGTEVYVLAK
# T8: BL6 mouse SIRP-α (mouse (C57BL/6 strain), UniProt P97797 32-148)
# T8 construct: also called C57BL/6
# T8 sequence: T2 sequence
# T9: BALBc mouse SIRP-α (mouse (BALB/c strain))
# T9 chain: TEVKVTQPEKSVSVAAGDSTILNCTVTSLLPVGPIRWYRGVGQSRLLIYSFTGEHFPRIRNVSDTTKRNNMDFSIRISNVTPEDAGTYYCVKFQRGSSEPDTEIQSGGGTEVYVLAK
# B1: S163 (scFv, V domains shown)
# VH: DVQLVESGGGLVRPGESLRLSCAASGFTFTNYAVTWVRQAPGEGLEWVSLISVTGTTYYADSVKGRFTISRDNSKSTLYLQMNGLRAEDTAVYYCAKVTWKNVFDYWGLGTLVTVSS
# VL: EIVLTQSPGTLSVSPGERATFSCRASQTVGSKLAWYQQKPGQAPRLLIYDANTRATGIPARFSGSGSGTEFTLTISSLQSEDFAVYYCQQHTDWPPYTFGGGTKVEIK
# B2: S162 (scFv, V domains shown)
# VH: B1 VH with G84S
# VL: B1 VL
# B3: S164 (scFv, V domains shown)
# VH: B1 VH
# VL: B1 VL with G66R
# B4: antibody 173 (antibody, V domains shown)
# VH: DVQLVESGGGVVRPGESLRLSCAASGFAFSDHDMSWVRQGPGEGLEWVAGISLRGGVTWYADSVKGRFTISRDNSKNTLYLRLFSLRTEDTAIYYCARESWNTFFDYWGLGTLVTVSS
# VL: EIVLTQSPGTLSLSPGETATLSCRASQNVRSNLAWYQQKPGQAPRLLIYDASSRATGIPDRFSGSGSGTDFTLTISSLQSEDFAVYYCQQYGNGPPLTFGGGTKVEIK
# notes: also called S173
# B5: antibody 116 (antibody, V domains shown)
# VH: VQLVESGGGVVRPGESLRLSCAASGFSFSSYAMNWVRQAPGEGLEWVSRINSGGGGTDYAESVKGRFTISRDNSENTLYLQMNSLRAEDTAVYYCAKQYDWNSFFDYWGLGALVTVSS
# VL: ETVLTQSPATLSVSPGERATLSCRASQTVGSKLAWHQQKPGQAPRLLIYDATNRATGISDRFSGSRSGTDFTLTISSLQTEDSAVYYCQQYYYWPPYRFGGGTKVEIK
# notes: also called S116
# B6: antibody 119 variant, light chain Mut / heavy chain wt (antibody, V domains shown)
# VH: DVQLLESGGGVVQPGGSLRLSCAASGFSFSNFAMTWVRQAPGEGLEWVSTIGSGDTYYADSVKGRFTISRDNSKNTLYLQMNSLRAEDTAVYYCAKDSTVSWSGDFFDYWGLGTLVTVSS
# VL: EIVLTQSPATLSVSPGERATLSCRASQNVKNDLAWYQQKPGQAPRLLIYAARIRETGIPARFSGSGSGTEFTLTISSLQSEDFAVYYCQQYYDWPPFTFGGGTKVEIK
# B7: antibody 119 variant, light chain wt / heavy chain Mut (antibody, human IgG1, V domains shown)
# VH: B6 VH with D1E, M34V, E43K, L112Q
# VL: B6 VL with L21F, K39R, A60E, S76T
# B8: antibody 135 variant, light chain Mut / heavy chain wt (antibody, V domains shown)
# VH: B6 VH with L5V, Q13R, G16E, N31I, F32Y, T35S, S53A, G54D, S101G
# VL: B6 VL with A19V, K30R, N31S, L33I, R52S, I53S, E55D, E70D, A84G
# B9: antibody 135 variant, light chain wt / heavy chain Mut (antibody, V domains shown)
# VH: EVQLVESGGGVVQPGGSLRLSCAASGFSFSIYAVSWVRQAPGKGLEWVSTIGADDTYYADSVKGRFTISRDNSKNTLYLQMNSLRAEDTAVYYCAKDSTVGWSGDFFDYWGQGTLVTVSS
# VL: EIVLTQSPATLSVSPGERVTFSCRASQNVRSDIAWYQQKPGQAPRLLIYAASSRDTGIPDRFSGSGSGTDFTLTISSLQSEDFGVYYCQQYYDWPPFTFGGGTKVEIK
# B10: antibody 135 (antibody, V domains shown)
# VH: B9 VH with E1D, Q13R, G16E, V34M, K43E, Q112L
# VL: B9 VL
# notes: also called AB135; S135
# What was measured:
# [1] = target: T1, mouse 129 SIRP-α D1 domain; assay: SPR
# In short: (§1)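 Dissociation rate constants (koff) were measured on a ProteOn XPR36 instrument by Langmuir model fitting. Antibody clones in scFv-Fc format were captured from pre-filtered culture media onto a GLC chip with about 4000 RU of amine-coupled anti-human IgG Fc. SIRP analytes ran in PBS pH 7.4 with 0.01% Tween-20 at 25° C, and the model used was 1:1, applied to data double-referenced against interspot and buffer-blank responses.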
# [2] = target: T2, C57BL/6 mouse SIRP-α D1 domain; assay: SPR
# In short: as §1
# [3] = target: T3, cynomolgus SIRP-α D1 domain (cyno2); assay: SPR, Langmuir fit
# In short: as §1
# [4] = target: T10, human SIRP-α v1 D1 domain (human, UniProt P78324 31-149); assay: SPR, Langmuir fit
# T10 construct: also called human v1
# In short: as §1
# human SIRPγ isoform 1 [5] = target: T11, human SIRPγ isoform 1 (human, UniProt Q9P1W8 29-147); assay: SPR, Langmuir fit
# T11 construct: also called SIRPg; sirpg
# In short: as §1
# T11 sequence (Q9P1W8 29-147 limits assumed): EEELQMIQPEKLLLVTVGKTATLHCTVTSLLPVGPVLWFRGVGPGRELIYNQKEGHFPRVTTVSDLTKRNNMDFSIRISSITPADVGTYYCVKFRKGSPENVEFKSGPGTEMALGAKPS
# [6] = target: T12, human SIRP-α v2 D1 domain (human); assay: SPR, Langmuir fit
# T12 construct: also called human v2
# In short: as §1
# [7] = target: T4, high affinity SIRP-α D1 variant CV1-3; assay: SPR, Langmuir fit
# In short: as §1
# human SIRPβ isoform 1 [8] = target: T13, human SIRPβ isoform 1 (human, UniProt O00241 30-148); assay: SPR, Langmuir fit
# T13 construct: also called SIRPb; sirpb1
# In short: as §1
# T13 sequence (O00241 30-148 limits assumed): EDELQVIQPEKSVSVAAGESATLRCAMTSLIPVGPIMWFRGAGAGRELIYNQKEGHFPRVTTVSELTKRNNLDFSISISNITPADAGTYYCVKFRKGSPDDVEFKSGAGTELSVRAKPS
# human SIRPγ isoform 1 [9] = target: T14, human SIRPγ isoform 1 (human, UniProt Q9P1W8 29-147); assay: SPR Koff +/-
# T14 construct: also called Gamma; Human SIRPg
# In short: (§2)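 Antibodies were amine-coupled (GLC chip) or captured via biotinylated Protein A (NLC chip) on a ProteOn XPR36, and SIRP analytes were injected in one-shot kinetic mode at 25° C in PBS pH 7.4 with 0.01% Tween-20. KD is kd/ka from apparent rate constants given by a global simple Langmuir fit of double-referenced data, with analyte concentrations nominal.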
# T14 sequence (Q9P1W8 29-147 limits assumed): as the sequence (Q9P1W8 29-147 limits assumed) above
# mouse 129 SIRP-α = target: T5, mouse 129 SIRP-α; assay: SPR Koff +/-
# In short: as §2
# human SIRPβ isoform 1 [10] = target: T15, human SIRPβ isoform 1 (human, UniProt O00241 30-148); assay: SPR Koff +/-
# T15 construct: also called Beta; Human SIRPb
# In short: as §2
# T15 sequence (O00241 30-148 limits assumed): as the sequence (O00241 30-148 limits assumed) above
# cynomolgus SIRP-α [11] = target: T6, cynomolgus SIRP-α; assay: SPR Koff +/-
# In short: as §2
# human SIRP-α v1 [12] = target: T16, human SIRP-α v1 (human, UniProt P78324 31-149); assay: SPR
# T16 construct: also called Human v1; Human V1
# In short: as §2
# human SIRP-α v2 [13] = target: T17, human SIRP-α v2 (human); assay: SPR
# T17 construct: also called Human v2; Human V2
# In short: as §2
# human SIRPγ isoform 1 [14] = target: T14, human SIRPγ isoform 1; assay: SPR, antibody on GLC chip
# In short: (§3)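 On a ProteOn XPR36 biosensor, Protein A-purified antibodies were amine-coupled to a GLC chip at about ~1000 RU after dilution to 80 nM in 10 mM sodium acetate pH 4.5. SIRP analytes at 100, 33, 11, 3.7, 1.2 and 0 nM were then injected one-shot in PBS pH 7.4 containing 0.01% Tween-20 at 25° C, with 90 s of association at 100 μL/min and 1200 s of dissociation. The dissociation constant (KD) was calculated as kd/ka from a global Langmuir fit of double-referenced data.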
# NOD mouse SIRP-α = target: T7, NOD mouse SIRP-α; assay: SPR, antibody on GLC chip
# In short: as §3
# human SIRP-α v1 [15] = target: T16, human SIRP-α v1; assay: SPR, antibody on GLC chip
# In short: as §3
# BL6 mouse SIRP-α = target: T8, BL6 mouse SIRP-α; assay: SPR, antibody on GLC chip
# In short: as §3
# human SIRP-α v2 [16] = target: T17, human SIRP-α v2; assay: SPR, antibody on GLC chip
# In short: as §3
# cynomolgus SIRP-α [17] = target: T6, cynomolgus SIRP-α; assay: SPR, antibody on GLC chip
# In short: as §3
# BALBc mouse SIRP-α = target: T9, BALBc mouse SIRP-α; assay: SPR, antibody on GLC chip
# In short: as §3
# T16 sequence (P78324 31-149 limits assumed): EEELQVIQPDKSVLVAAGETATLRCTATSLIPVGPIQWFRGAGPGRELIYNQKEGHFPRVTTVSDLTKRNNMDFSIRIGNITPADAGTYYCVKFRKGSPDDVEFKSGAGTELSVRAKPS
# T17 sequence (chain, as listed by the source limits assumed): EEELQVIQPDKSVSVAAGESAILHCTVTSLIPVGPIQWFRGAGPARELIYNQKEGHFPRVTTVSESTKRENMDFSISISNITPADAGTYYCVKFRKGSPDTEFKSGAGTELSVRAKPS
# T10 sequence (P78324 31-149 limits assumed): as the sequence (P78324 31-149 limits assumed) above
# T12 sequence (chain, as listed by the source limits assumed): as the sequence (chain, as listed by the source limits assumed) above
Binder,binding result [1],binding result [2],koff [3],koff [7],binding result (mouse 129 SIRP-α),binding result (human SIRPβ isoform 1 [10]),Kd (human SIRP-α v1 [12]),Kd (human SIRP-α v2 [13]),Kd (human SIRPγ isoform 1 [14]),binding result (NOD mouse SIRP-α),Kd (human SIRP-α v1 [15]),binding result (BL6 mouse SIRP-α),Kd (human SIRP-α v2 [16]),Kd (cynomolgus SIRP-α [17]),binding result (BALBc mouse SIRP-α),further results
B1,no binding (tested: Koff > 5 × 10^3 (legend)),no binding (tested: Koff > 5 × 10^3 (legend)),0.000242 s⁻¹,0.00174 s⁻¹,–,–,–,–,–,–,–,–,–,–,–,koff [4]: 0.000535 s⁻¹; koff (human SIRPγ isoform 1 [5]): 0.00315 s⁻¹; koff [6]: 0.00664 s⁻¹; koff (human SIRPβ isoform 1 [8]): 0.0017 s⁻¹
B2,no binding (tested: Koff > 5 × 10^3 (legend)),no binding (tested: Koff > 5 × 10^3 (legend)),0.000318 s⁻¹,0.00152 s⁻¹,–,–,–,–,–,–,–,–,–,–,–,–
B3,no binding (tested: Koff > 5 × 10^3 (legend)),no binding (tested: Koff > 5 × 10^3 (legend)),0.000408 s⁻¹,0.00134 s⁻¹,–,–,–,–,–,–,–,–,–,–,–,koff [4]: 0.000595 s⁻¹; koff (human SIRPγ isoform 1 [5]): 0.00426 s⁻¹; koff [6]: 0.00989 s⁻¹; koff (human SIRPβ isoform 1 [8]): 0.00167 s⁻¹
B4,–,–,–,–,no binding,no binding,0.937 nM,9.28 nM,–,–,–,–,–,–,–,binding result (human SIRPγ isoform 1 [9]): no binding; binding result (cynomolgus SIRP-α [11]): no binding
B5,–,–,–,–,no binding,binds,0.11 nM,0.299 nM,–,–,–,–,–,–,–,binding result (human SIRPγ isoform 1 [9]): binds; binding result (cynomolgus SIRP-α [11]): binds
B6,–,–,–,–,–,–,–,–,0.233 nM,no binding,0.214 nM,no binding,0.0864 nM,0.138 nM,no binding,–
B7,–,–,–,–,–,–,–,–,–,no binding,0.254 nM,no binding,0.0694 nM,0.155 nM,no binding,–
B8,–,–,–,–,–,–,–,–,0.522 nM,no binding,0.149 nM,no binding,0.0266 nM,0.102 nM,no binding,–
B9,–,–,–,–,–,–,–,–,0.779 nM,no binding,0.184 nM,no binding,0.0197 nM,0.125 nM,no binding,–
B10,–,–,–,–,no binding,binds,0.151 nM,0.029 nM,0.539 nM,no binding,0.151 nM,no binding,0.029 nM,0.0969 nM,no binding,–
